Measured values published in US11925667B2, “Engineered therapeutic probiotic system and method” (priority 2018, dated 2024).

B1: Armoracia rusticana myrosinase I1, SEQ ID NO: 6 (Armoracia rusticana) (protein)
chain: QNVCNPACKAKEPFNCDNTLTFNQTGFPKNFTFGAATSAYQIEGAAHRALNGWDYFTHRYPEKVPDRSSGDLACDSYDLYKDDVKLLKRMNVQAYRLSIAWSRVLPKGRLIGGVDENGITYYNNLINELKANGIEPYVTIFHWDVPQTLEDEYGGFLSPRIVEDFTNFAELLFQRFGDRVKFWITLNQPYSLATKGYGDGSYPPGRCTDCEFGGDSGTEPYIVAHHQLLAHAETVSLYRKRYQKFQGGKIGTTLIGRWFQPLNQTSNLDKAAAKRAFDFFVGWFLDPLVYGEYPKIMKEMVGDRMPKFTPQESDLVKGSLDFLGLNYYVTQYATDAPPSIPTQPSAITDPRVTLGYYRNGIPIGVQAASFVYYPTGFRQILNHIKDNYKNPLTYITENGVADFGNLTLANALADIGRIQNHCSHLSCLKCAIADGCNVGGYFAWSFMDNYEFGNGYTLRFGMNWVNFTNPADRKQKDSGKWFSKFLAK
notes: elsewhere used as YebF-I1 fusion
B2: Brevicoryne brassicae myrosinase BMY1 (Brevicoryne brassicae) (protein)
chain: MDYKFPKDFMFGTSTASYQIEGGWNEDGKGENIWDRLVHTSPEVIKDGTNGDIACDSYHKYKEDVAIIKDLNLKFYRFSISWARIAPSGVMNSLEPKGIAYYNNLINELIKNDIIPLVTMYHWDLPQYLQDLGGWVNPIMSDYFKEYARVLFTYFGDRVKWWITFNEPIAVCKGYSIKAYAPNLNLKTTGHYLAGHTQLIAHGKAYRLYEEMFKPTQNGKISISISGVFFMPKNAESDDDIETAERANQFERGWFGHPVYKGDYPPIMKKWVDQKSKEEGLPWSKLPKFTKDEIKLLKGTADFYALNHYSSRLVTFGSDPNPNFNPDASYVTSVDEAWLKPNETPYIIPVPEGLRKLLIWLKNEYGNPQLLITENGYGDDGQLDDFEKISYLKNYLNATLQAMYEDKCNVIGYTVWSLLDNFEWFYGYSIHFGLVKIDFNDPQRTRTKRESYTYFKNVVSTGKP

How the values were obtained:
[1] = substrate: C=CC/C(=N/OS(=O)(=O)O)S[C@@H]1O[C@H](CO)[C@@H](O)[C@H](O)[C@H]1O; experiment: Myrosinase activity assay (glucose release from sinigrin hydrolysis), I1; format: biochemical, Armoracia rusticana
From the text: In a preferred embodiment, the myrosinases derived from Armoracia rusticana (I1) and Brassica oleacea (A6) have a better stability and catalytic efficiency in various temperatures and pH values when compared with those derived from BMY1 and TGG1 (Table 1). In a preferred illustrative embodiment I1 myrosinase is selected owing to its Km value and improved kcat at the colorectal ambient temperature and pH (FIG. 2c, 2d and Table 1). By comparing the modeled-I1 myrosinase protein structure against that of the BMY1 myrosinase, the critical side chain residues involved in glucose-ring recognition and the glutamic acid that served as a nucleophile during catalysis are conserved. According to the claimed invention the improved catalytic efficiency of the I1 myrosinase is correlated to its pI value (pI=7.90) and the overall positively charged surface (FIG. 8) that contributes to better structural stability.
(§1) Gene cloning, protein expression and purification. Myrosinase genes are optimized for E. coli expression and cloned into the pET28b expression vector. The plasmids are transformed into E. coli BL21 (DE3) cultured in lysogeny broth (LB) (BD, Le Pont de Claix, France) at 37° C., 225 rpm to OD600 0.6 followed by 0.5 mM isopropyl β-D-1-thiogalactopyranoside (IPTG) induction at 16° C., 180 rpm for 16 hours. Cells are harvested, resuspended in lysis buffer (50 mM Tris-Cl, 300 mM NaCl, 10% glycerol, 1 mM dithiothreitol [DTT], pH 8.0) and lysed using Emulsiflex C-3 (Avestin). Expressed myrosinases are purified by IMAC Ni-NTA purification followed by Hi-Load Superdex 200 size exclusion column chromatography (GE, Uppsala, Sweden). The purified protein is concentrated and stored at −80° C. Pilot scale protein purification and enzymatic assay is conducted.
(§2) Myrosinase screening assay. The enzymatic reaction is measured for the release of glucose resulting from sinigrin hydrolysis. The reaction is conducted in sodium phosphate-buffered solution supplied in the Amplex® Red Glucose/Glucose Oxidase Assay Kit (Thermo Fisher Scientific, Geel, Belgium). The reaction buffer is prepared at different pH values (6.0, 6.5, 7.4 and 8.0) and at different reaction temperatures (34° C., 37° C., and 40° C.). The reaction is prepared using 0.1 μM purified myrosinase added to 1× Amplex® Red Glucose Assay reaction mixture and was kick-started with the corresponding concentration of sinigrin. The reaction can be measured at 560 nm absorbance and fluorescence (λex=540 nm, λem=590 nm) using a Synergy H1 Multi-Mode microtiter plate reader (BioTek®, Winooski, USA). The reaction initial velocity (VO) is determined and fitted into a Michaelis-Menten curve. Vmax and KM are determined by fitting into the Michaelis-Menten equation (Eq. 1) using GraphPad Prism Software. ^v=Vmax*[Sinigrin]/(KM+[Sinigrin]) (Eq.1)
(§3) Table S1|Myrosinase activity assay screening under various pH and temperature conditions (n=3 independent experiments, each measurement performed in triplicates; mean[…].).

[2] = substrate: C=CC/C(=N/OS(=O)(=O)O)S[C@@H]1O[C@H](CO)[C@@H](O)[C@H](O)[C@H]1O; experiment: Myrosinase activity assay (glucose release from sinigrin hydrolysis), BMY1; format: biochemical, Brevicoryne brassicae
Description: Screening for improved β-thioglucosidase. The activity and stability of myrosinase, a β-thioglucosidase that hydrolyzes glucosinolate to sulforaphane, varies at differing pH and temperature; in a preferred embodiment the selected enzyme needs to function under physiological colorectal conditions. The healthy colon pH averages 6.6, while it is 7.0 and 6.7 in patients with adenoma and carcinoma, respectively. In addition, the temperature of the human intestinal tract ranges from 36° C. to 40° C. depending on the individual's metabolic state. In the illustrative example five plant-derived myrosinase orthologues with minimal glycosylation sites and the absence of the co-factor-binding sites using the BLAST search and the Enzyme Function Initiative-Enzyme Similarity Tool (EFI-EST), are compared to the well-characterized myrosinases from Brevicoryne brassicae (BMY1) and Arabidopsis thaliana (TGG1) (FIG. 2a and FIG. 7).
as §1, §2, §3

[3] = other: pH 6.0, 37° C., pH 6.0, 37.0 °C
[4] = other: pH 6.5, 37° C., pH 6.5, 37.0 °C
[5] = other: pH 7.4, 34° C., pH 7.4, 34.0 °C
[6] = other: pH 7.4, 37° C., pH 7.4, 37.0 °C
[7] = other: pH 7.4, 40° C., pH 7.4, 40.0 °C
[8] = other: pH 8.0, 37° C., pH 8.0, 37.0 °C

Row | Protein | Km [1, 3] | Km [1, 4] | Km [1, 5] | Km [1, 6] | Km [1, 7] | Km [1, 8] | Km [2, 3] | Km [2, 4] | Km [2, 5] | Km [2, 6] | Km [2, 7] | Km [2, 8]
1 | B1 | 192 ± 40 µM | 183 ± 19 µM | 49 ± 4 µM | 87 ± 7 µM | 87 ± 9 µM | 192 ± 17 µM |  |  |  |  |  | 
2 | B2 |  |  |  |  |  |  | 153 ± 17 µM | 399 ± 86 µM | 76 ± 6 µM | 67 ± 1 µM | 342 ± 67 µM | 217 ± 87 µM
